In the Human Domainome abundance scans (Beltran et al. 2025):
± gives the uncertainty stated by the source.

B1: Far upstream element-binding protein 1, residues 184 to 257; numbered along this chain, Q96AE4 (parent)
chain: GNAVQEIMIPASKAGLVIGKGGETIKQLQERAGVKMVMIQDGPQNTGADKPLRITGDPYKVQQAKEMVLELIRD

Variants of: B1
Experiment: abundance fitness (aPCA) (normalised: wild type 0, dead -1); higher = more abundant; growth selection in yeast, the domain comes from the species named
Conditions: Homo sapiens
In the case of GNAVQEIMIPASKAGLVIGKGGETIKQLQERAGVKMVMIQDGPQNTGADKPLRITGDPYWVQQAKEMVLELIRD [K60W], the abundance fitness is reported as -0.314 ± 0.032. With GNAVQEIMIPASKAGLVIGKGGETIKQLQERAGVKMVMIQDGPQNTGADKPLRITGDPYHVQQAKEMVLELIRD [K60H] the abundance fitness was -0.01 ± 0.047. For GNAVQEIMIPASKAGLVIGKGGETIKQLQERAGVKMVMIQDGPQNTGADKPLRITGDPYVVQQAKEMVLELIRD [K60V], the abundance fitness was -0.581 ± 0.033. For GNAVQEIMIPASKAGLVIGKGGETIKQLQERAGVKMVMIQDGPQNTGADKPLRITGDPYEVQQAKEMVLELIRD [K60E], the abundance fitness was -0.187 ± 0.033. GNAVQEIMIPASKAGLVIGKGGETIKQLQERAGVKMVMIQDGPQNTGADKPLRITGDPYAVQQAKEMVLELIRD [K60A] gave an abundance fitness of -0.036 ± 0.031. In the case of GNAVQEIMIPASKAGLVIGKGGETIKQLQERAGVKMVMIQDGPQNTGADKPLRITGDPYNVQQAKEMVLELIRD [K60N], the abundance fitness is reported as 0.029 ± 0.047. In the case of GNAVQEIMIPASKAGLVIGKGGETIKQLQERAGVKMVMIQDGPQNTGADKPLRITGDPYQVQQAKEMVLELIRD [K60Q], the abundance fitness is reported as -0.037 ± 0.038. For GNAVQEIMIPASKAGLVIGKGGETIKQLQERAGVKMVMIQDGPQNTGADKPLRITGDPYKVQKAKEMVLELIRD [Q63K], the abundance fitness was 0 ± 0.036. In the case of GNAVQEIMIPASKAGLVIGKGGETIKQLQERAGVKMVMIQDGPQNTGADKPLRITGDPYKVQEAKEMVLELIRD [Q63E], the abundance fitness is reported as 0.006 ± 0.035. Variant GNAVQEIMIPASKAGLVIGKGGETIKQLQERAGVKMVMIQDGPQNTGADKPLRITGDPYKVQFAKEMVLELIRD [Q63F] has an abundance fitness of -0.116 ± 0.047. GNAVQEIMIPASKAGLVIGKGGETIKQLQERAGVKMVMIQDGPQNTGADKPLRITGDPYKVQIAKEMVLELIRD [Q63I] showed an abundance fitness of -0.025 ± 0.05. Variant GNAVQEIMIPASKAGLVIGKGGETIKQLQERAGVKMVMIQDGPQNTGADKPLRITGDPYKVQGAKEMVLELIRD [Q63G] has an abundance fitness of -0.058 ± 0.027. Work on GNAVQEIMIPASKAGLVIGKGGETIKQLQERAGVKMVMIQDGPQNTGADKPLRITGDPYKVQDAKEMVLELIRD [Q63D] yielded an abundance fitness of -0.116 ± 0.04. For GNAVQEIMIPASKAGLVIGKGGETIKQLQERAGVKMVMIQDGPQNTGADKPLRITGDPYKVQMAKEMVLELIRD [Q63M], the abundance fitness was -0.026 ± 0.036. GNAVQEIMIPASKAGLVIGKGGETIKQLQERAGVKMVMIQDGPQNTGADKPLRITGDPYKVQPAKEMVLELIRD [Q63P] gave an abundance fitness of -0.408 ± 0.036. Variant GNAVQEIMIPASKAGLVIGKGGETIKQLQERAGVKMVMIQDGPQNTGADKPLRITGDPYKVQNAKEMVLELIRD [Q63N] has an abundance fitness of -0.107 ± 0.049. Variant GNAVQEIMIPASKAGLVIGKGGETIKQLQERAGVKMVMIQDGPQNTGADKPLRITGDPYKVQHAKEMVLELIRD [Q63H] has an abundance fitness of -0.069 ± 0.049. Work on GNAVQEIMIPASKAGLVIGKGGETIKQLQERAGVKMVMIQDGPQNTGADKPLRITGDPYKVQAAKEMVLELIRD [Q63A] yielded an abundance fitness of -0.022 ± 0.03. Work on GNAVQEIMIPASKAGLVIGKGGETIKQLQERAGVKMVMIQDGPQNTGADKPLRITGDPYKVQCAKEMVLELIRD [Q63C] yielded an abundance fitness of 0.013 ± 0.045. GNAVQEIMIPASKAGLVIGKGGETIKQLQERAGVKMVMIQDGPQNTGADKPLRITGDPYKDQQAKEMVLELIRD [V61D] gave an abundance fitness of -0.881 ± 0.073. For GNAVQEIMIPASKAGLVIGKGGETIKQLQERAGVKMVMIQDGPQNTGADKPLRITGDPYKPQQAKEMVLELIRD [V61P], the abundance fitness was -0.758 ± 0.044. In the case of GNAVQEIMIPASKAGLVIGKGGETIKQLQERAGVKMVMIQDGPQNTGADKPLRITGDPYKQQQAKEMVLELIRD [V61Q], the abundance fitness is reported as -0.528 ± 0.046. GNAVQEIMIPASKAGLVIGKGGETIKQLQERAGVKMVMIQDGPQNTGADKPLRITGDPYKGQQAKEMVLELIRD [V61G] gave an abundance fitness of -0.627 ± 0.03. In the case of GNAVQEIMIPASKAGLVIGKGGETIKQLQERAGVKMVMIQDGPQNTGADKPLRITGDPYKWQQAKEMVLELIRD [V61W], the abundance fitness is reported as -1.17 ± 0.077. GNAVQEIMIPASKAGLVIGKGGETIKQLQERAGVKMVMIQDGPQNTGADKPLRITGDPYKMQQAKEMVLELIRD [V61M] showed an abundance fitness of -0.236 ± 0.048. For GNAVQEIMIPASKAGLVIGKGGETIKQLQERAGVKMVMIQDGPQNTGADKPLRITGDPYKAQQAKEMVLELIRD [V61A], the abundance fitness was -0.22 ± 0.031. In the case of GNAVQEIMIPASKAGLVIGKGGETIKQLQERAGVKMVMIQDGPQNTGADKPLRITGDPYKLQQAKEMVLELIRD [V61L], the abundance fitness is reported as -0.286 ± 0.031. With GNAVQEIMIPASKAGLVIGKGGETIKQLQERAGVKMVMIQDGPQNTGADKPLRITGDPYKTQQAKEMVLELIRD [V61T] the abundance fitness was -0.154 ± 0.034. GNAVQEIMIPASKAGLVIGKGGETIKQLQERAGVKMVMIQDGPQNTGADKPLRITGDPYKFQQAKEMVLELIRD [V61F] showed an abundance fitness of -0.599 ± 0.063. In the case of GNAVQEIMIPASKAGLVIGKGGETIKQLQERAGVKMVMIQDGPQNTGADKPLRITGDPYKRQQAKEMVLELIRD [V61R], the abundance fitness is reported as -0.672 ± 0.032. For GNAVQEIMIPASKAGLVIGKGGETIKQLQERAGVKMVMIQDGPQNTGADKPLRITGDPYKKQQAKEMVLELIRD [V61K], the abundance fitness was -0.847 ± 0.06. Variant GNAVQEIMIPASKAGLVIGKGGETIKQLQERAGVKMVMIQDGPQNTGADKPLRITGDPYKSQQAKEMVLELIRD [V61S] has an abundance fitness of -0.427 ± 0.033. In the case of GNAVQEIMIPASKAGLVIGKGGETIKQLQERAGVKMVMIQDGPQNTGADKPLRITGDPYKHQQAKEMVLELIRD [V61H], the abundance fitness is reported as -0.814 ± 0.07. In the case of GNAVQEIMIPASKAGLVIGKGGETIKQLQERAGVKMVMIQDGPQNTGADKPLRITGDPYKNQQAKEMVLELIRD [V61N], the abundance fitness is reported as -0.764 ± 0.066. GNAVQEIMIPASKAGLVIGKGGETIKQLQERAGVKMVMIQDGPQNTGADKPLRITGDPYKIQQAKEMVLELIRD [V61I] showed an abundance fitness of -0.091 ± 0.05. GNAVQEIMIPASKAGLVIGKGGETIKQLQERAGVKMVMIQDGPQNTGADKPLRITGDPYKEQQAKEMVLELIRD [V61E] gave an abundance fitness of -0.787 ± 0.049. GNAVQEIMIPASKAGLVIGKGGETIKQLQERAGVKMVMIQDGPQNTGADKPLRITGDPYKCQQAKEMVLELIRD [V61C] showed an abundance fitness of -0.062 ± 0.042.
